Reference: paper PMC6742660, “Autoinhibition and activation mechanisms of the eukaryotic lipid flippase Drs2p-Cdc50p” (Nature Communications, 2019)

Target: T1, Drs2p (S. cerevisiae, UniProt P39524 1-1355)
T1 construct: Drs2p, Saccharomyces cerevisiae, intact protein of 1355 residues; Co-purified with endogenous Cdc50p; Residues 196-212 of the N-terminal peptide and Glu1231-Ala1309 of the C-terminal peptide are ordered in the apo map; The last 46 residues are disordered; also called Drs2p ATPase; P4 ATPase subunit of the Drs2p-Cdc50p lipid flippase; not shown: triple FLAG, C-terminal, kept
T1 sequence (looked up): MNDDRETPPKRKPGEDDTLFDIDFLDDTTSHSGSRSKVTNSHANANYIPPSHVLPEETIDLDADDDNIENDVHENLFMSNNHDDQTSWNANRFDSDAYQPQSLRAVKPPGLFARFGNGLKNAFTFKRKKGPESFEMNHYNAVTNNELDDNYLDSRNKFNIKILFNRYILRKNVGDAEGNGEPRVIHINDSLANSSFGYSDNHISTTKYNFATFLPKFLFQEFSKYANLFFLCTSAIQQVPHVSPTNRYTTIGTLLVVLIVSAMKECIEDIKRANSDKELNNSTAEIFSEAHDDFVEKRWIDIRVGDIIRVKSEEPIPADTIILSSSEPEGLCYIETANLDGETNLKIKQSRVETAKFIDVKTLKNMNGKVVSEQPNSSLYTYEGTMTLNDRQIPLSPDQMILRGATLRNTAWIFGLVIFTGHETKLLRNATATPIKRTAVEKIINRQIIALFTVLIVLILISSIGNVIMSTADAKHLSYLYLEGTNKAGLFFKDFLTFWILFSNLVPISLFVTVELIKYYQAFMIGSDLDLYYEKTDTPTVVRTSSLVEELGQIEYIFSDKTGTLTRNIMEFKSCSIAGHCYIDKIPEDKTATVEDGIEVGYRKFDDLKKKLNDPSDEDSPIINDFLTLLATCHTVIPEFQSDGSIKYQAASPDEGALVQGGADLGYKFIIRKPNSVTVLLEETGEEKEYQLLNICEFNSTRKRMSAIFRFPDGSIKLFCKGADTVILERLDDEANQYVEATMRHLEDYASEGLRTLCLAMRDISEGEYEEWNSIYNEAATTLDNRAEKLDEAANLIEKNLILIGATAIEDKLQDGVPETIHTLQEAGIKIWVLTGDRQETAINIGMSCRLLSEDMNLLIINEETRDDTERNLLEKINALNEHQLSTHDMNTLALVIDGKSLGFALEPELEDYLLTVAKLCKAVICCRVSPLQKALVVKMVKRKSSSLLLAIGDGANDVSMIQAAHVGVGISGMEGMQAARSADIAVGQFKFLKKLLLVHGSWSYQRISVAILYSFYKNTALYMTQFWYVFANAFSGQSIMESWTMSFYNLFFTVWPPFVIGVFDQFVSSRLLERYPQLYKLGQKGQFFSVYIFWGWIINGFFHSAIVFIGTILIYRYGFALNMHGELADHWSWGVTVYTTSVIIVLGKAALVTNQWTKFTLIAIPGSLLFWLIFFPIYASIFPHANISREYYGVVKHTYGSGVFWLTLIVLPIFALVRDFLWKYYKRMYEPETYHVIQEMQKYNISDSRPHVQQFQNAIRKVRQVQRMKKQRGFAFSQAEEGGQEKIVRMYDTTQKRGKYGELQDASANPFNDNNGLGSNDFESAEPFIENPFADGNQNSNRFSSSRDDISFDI
Test: cryo-EM structure; endogenous Drs2p-Cdc50p complex as purified, apo autoinhibited form, 3 mg/mL; 0.01% LMNG, 0.001% CHS, 150 mM NaCl, 20 mM Tris-HCl pH 7.4, 1 mM MgCl2, 1 mM MnCl2; 2.8 Å map
Conditions: both partners purified

B1: Cdc50p (natural protein, S. cerevisiae, UniProt P25656 1-391, looked up)
chain: MVSLFKRGKAPPLTKEGPTSKKPPNTAFRQQRLKAWQPILSPQSVLPLLIFVACIFTPIGIGLIVSATKVQDLTIDYSHCDTKASTTAFEDIPKKYIKYHFKSKVENKPQWRLTENENGEQSCELQFEIPNDIKKSIFIYYKITNFYQNHRRYVQSFDTKQILGEPIKKDDLDTSCSPIRSREDKIIYPCGLIANSMFNDTFSQVLSGIDDTEDYNLTNKHISWSIDRHRFKTTKYNASDIVPPPNWMKKYPDGYTDENLPDIHTWEEFQVWMRTAAFPKFYKLTLKNESASLPKGKYQMNIELNYPISLFGGTKSFVLTTNGAIGGRNMSLGVLYLIVAGLCALFGIIFLVKLIFQPRAMGDHTYLNFDDEENEDYEDVHAENTTLREIL
modifications: N-glycans at Asn-199, Asn-216 and Asn-288; disulfide bonds Cys-80 with Cys-123 and Cys-176 with Cys-190
notes: Cdc50p, Saccharomyces cerevisiae, endogenous untagged subunit of the Drs2p-Cdc50p complex; The first half of the 40-residue N-terminal peptide and the 31-residue C-terminal peptide are disordered in the map
binding result: binds
